Series [1] is described as follows: Differential scanning fluorimetry (protein thermal shift; TM1 Fc, TM2 Fab). The following applies: melting temperature of the Fab domain; Table 11. The format is physicochemical. The protocol:
A protein thermal shift assay was carried out by mixing the protein to be assayed with an environmentally sensitive dye (SYPRO Orange, Life Technologies Cat #S-6650) in a phosphate buffered solution (PBS), and monitoring the fluorescence of the mixture in real time as it underwent controlled thermal denaturation. Protein solutions between 0.2-2 mg/mL were mixed at a 1-1 volumetric ratio with a 1-500 PBS-diluted solution of SYPRO Orange (SYPRO Orange stock dye is 5000× in DMSO). 10 μL aliquots of the protein-dye mixture were dispensed in quadruplicate in a 384-well microplate (Bio-Rad Cat #MSP-3852), and the plate was sealed with an optically clear sealing film (Bio-Rad Cat #MSB-1001) and placed in a 384-well plate real-time thermocycler (Bio-Rad CFX384 Real Time System). The protein-dye mixture was heated from 25° C. to 95° C., at increments of 0.1° C. per cycle (˜1.5° C. per minute), allowing 3 seconds of equilibration at each temperature before taking a fluorescence measurement. At the end of the experiment, the transition melting temperatures (TM1 and TM2) were determined using the Bio-Rad CFX manager software. TM1 represents the melting temperature of the Fc domain. TM2 represents the melting temperature of the Fab domain.
For the thermal stability of an antibody, the first melting peak (Tm1) coincides with the unfolding of the CH2 domain (FC stability), while the second melting peak (Tm2) occurs upon unfolding of the Fab domain.

For series [2], the target named is T1, human ROR1-Fz (Homo sapiens, UniProt Q01973).
T1 construct: Frizzled (Fz, residues 165-305); HIS6 (C); purchased Acro Biosystems; host or cells: HEK293
Briefly: Biacore off-rate and kinetic analysis, ROR1 frizzled domain. The format is binding. The following applies: Table 11 (SP34 light chain). The procedure: Anti-Fc polyclonal antibodies were immobilized onto a CM5 chip (GE Life Sciences) using amine coupling chemistry (from Amine Coupling Kit, GE Life Sciences). The immobilization steps were carried out at a flow rate of 25 μL/min in 1×HBS-EP+ buffer (GE Life Sciences; 10× Stock diluted before use). The sensor surfaces were activated for 7 min with a mixture of NHS (0.05 M) and EDC (0.2 M). The Anti-Fc antibodies were injected over all 4 flow cells at a concentration of 25 ug/ml in 10 mM sodium acetate, pH 4.5, for 7 min. Ethanolamine (1 M, pH 8.5) was injected for 7 min to block any remaining activated groups. An average of 12,000 response units (RU) of capture antibody was immobilized on each flow cell.
Off-rate and kinetic binding experiments were performed at 25° C. using 1×HBS-EP+ buffer. Test and control antibodies were injected over the anti-Fc surface at concentrations of 5-10 μg/mL for 12 seconds at a flow rate of 10 μL/min on flow cells 2, 3 and 4, followed by a buffer wash for 30 seconds at the same flow rate. Kinetic characterization of antibody samples was carried out with a range of antigen concentrations from 1-100 nM and 1 injection of 0 nM antigen (for example, 100, 50, 25, 6.25, 1.56 and 0 nM). After capturing ligand (antibody) on the anti-Fc surface, the analyte (hROR1, Fz or Kr domains, Acro Biosystems, Delaware) was bound for 180 seconds, followed by a 600 second dissociation phase at a flow rate of 50 μL/min. Between each ligand capture and analyte binding cycle, regeneration was carried out using 2 injections of 10 mM Glycine pH 2.0 for 30 seconds at 30 μL/min, followed by a 30 second buffer wash step.
The data was fit with the Biacore T200 Evaluation software, using a 1-1 Langmuir binding model. KD (affinity, nM) was determined as a ratio of the kinetic rate constants calculated from the fits of the association and dissociation phases.
For anti-CD3-LC-containing IgGs that had detectable ROR1-binding in ELISA (1944-A07 and 1987-C05 variants), those antibodies were further tested for binding by surface plasmon resonance (SPR). Binding kinetics were assessed to the ROR1-frizzled domain (hROR1-Fz) or the ROR1-extracellular domain (hROR1) for 1944-A07 and 1987-C05 variants, respectively. Briefly, anti-ROR1 antibodies were captured via anti-human Fc polyclonal antibodies immobilized to a CM5 chip, and ROR1 recombinant proteins were flowed across the surface to assess binding kinetics. hROR1 or hROR1-Fz domain (Acro Biosystems, Delaware) binding was tested at 100, 50, 25, 6.25, 1.5625 nM. The data was fit with the Biacore™ T200 Evaluation software, using a 1-1 Langmuir binding model. KD (affinity, nM) was determined as a ratio of the kinetic rate constants calculated from the fits of the association and dissociation phases.

In series [3] the target is T2, HCT116 cells overexpressing human ROR1 (HCT116-hRor1) (Homo sapiens, UniProt Q01973).
T2 construct: expressed in transfected cells; host or cells: HCT116
Briefly: FACS cell binding, affinity maturation leads. To be noted: Table 11 (SP34 light chain). The source says: Ntera-2, MDA-MB-231, MCF7, HCT116 and Mino cells were obtained from ATCC. HCT116-hRor1-D02 clone was generated by transfecting HCT116 cells with a plasmid containing human Ror1 cDNA sequence and selected for highest stable expression of hRor1 on the cell surface. MDA-MB-231, MCF7, HCT116 and HCT116-Ror1 cell were maintained in Ham's F-12 high glucose DMEM (50-50) (Cellgro-Mediatech; Manassas, VA) supplemented with 10% heat-inactivated fetal bovine serum (Hyclone; Thermo Scientific; Waltham, MA), 1% Penicillin/Streptomycin (Cellgro-Mediatech; Manassas, VA) and 2 mmol/L-glutamax (Life Technology; Carlsbad, CA). Mino cells were maintained in RPMI-1640 medium (Cellgro-Mediatech; Manassas, VA) supplemented with 20% heat-inactivated fetal bovine serum (Hyclone; Thermo Scientific; Waltham, MA), 1% Penicillin/Streptomycin (Cellgro-Mediatech; Manassas, VA) and 2 mmol/L-glutamax (Life Technology; Carlsbad, CA).
Variants with expression levels >250 nM were tested in a fluorescence-activated cell sorting (FACS) cell-binding assay. […]
A mix of ROR1 positive and negative cells was prepared as follows. […] Cells were then washed 2× with FACS buffer and fixed for 10 minutes in 200 μl PBS with 2% PFA prior to fluorescence detection. […] Mean Fluorescence Intensity of ROR1 antibody binding was analyzed using FlowJo® software (Tree Star, Inc.).

B1: SRP2196-B07 (antibody, V domains shown)
VH: EVQLVESGGGLVQPGGSLRLSCAASGFNITGYHIHWVRQAPGEGLEWVGYISPNSGATYYADSVEGRFTISADTSKNTAYLQMHSLRAEDTAVYYCTRDSRRYVRGWDYWGQGTLVTVSS
VL: QAVVTQESALTTSPGETVTLTCRSSTGAVTTSNYANWVQEKPDHLFTGLIGGTNKRAPGVPARFSGSLIGDKAALTITGAQTEDEAIYFCALWYSNLWVFGGGTKLTVL
Regarding B1, the TM2 in series [1] is 69 °C. In series [2], the “Biacore human ROR1-Fz ka” value stood at 185000 M⁻¹ s⁻¹ and the “Biacore human ROR1-Fz kd” value turned out to be 0.000269 s⁻¹. The “HCT 116-hROR1 Binding Bmax” value in series [3] was 15139 MFI.

Source of the values: patent US12226490B2, “Anti-ROR1 antibody conjugates, compositions comprising anti ROR1 antibody conjugates, and methods of making and using anti-ROR1 antibody conjugates preliminary class” (Sutro Biopharma, Inc., priority 2022, dated 2025).
